Source: the supplement of paper PMC12636428

Tested on: Saccharomyces cerevisiae
Experiment: transcriptional activation domain activity (GFP:mCherry ratio, weighted mean of sorted bins, harmonized to initial dataset scale) (arbitrary fluorescence ratio units); higher = stronger transcriptional activation
Conditions: beta-estradiol 1 µM; induction time 4 h
How it was run: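 Each value is an activation activity: the read-weighted mean of bin median fluorescence, averaged across barcodes, then mapped linearly to the initial dataset scale. The tiles, fused to an estradiol-inducible synthetic transcription factor, sat at the yeast URA3 locus in GFP-reporter diploids. Cells spent 4 hours at 30 °C in SC with 1 uM beta-estradiol before sorting into 8 GFP:mCherry bins, and tiles below 50 reads were removed.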

| Sequence | transcriptional activation domain activity |
| --- | --- |
| RQCMLYLIAYFMLQETFGTYFNVTGILQNEYYRPSFGLLPLLMRARIIHYSPL | 34600 |
| IILRIVGAPNWIQFWSLGRNQVDLLLVISTCVIQLPMIQNLDIYKYLTIFQVF | 81300 |
| NRPGQKSIQVLNQYIGIDIGKCYLCGRLCVNLSYVCWSSPQLLYNCRMVMITR | 41000 |
| CNVLFYLELVRALVLLHRWDLNTWMLQYSTKTMPPIQPTPLDDFVKYITTFPG | 42800 |
| EWNRSVNSTYPLLYRGVDFLQKSLSWLKILRLSYLHPLQFFGCFGFGLLVVHI | 60200 |
| FYAMVHWYKIFQSGHSIVRIFLLLIEFLYNLISLVFSWFSLANFYLCYYFLYH | 49600 |
| GMVPGYYPKMPYNPMGGDPLLDQAFYGADDFFFPPEGCDNNMLYPQTATSWNV | 138000 |
| HLLVVAPLILAYLTVDDLSNLRLRLLGRCLRLLAISLAFLCACCCTSSSTPST | 58200 |
| RAVAVLRRGDFAGAGGGGGSGAGGGKRRKEKEKEEQEERRRRPAVASRAVKDL | 57500 |
| LYPQDLVSSPAMSHLTANNDDFDDLLSVASMNSNYLLPVNSHGYKHISNLDEL | 69100 |
| AFLVGGGSAFWVLGYGLFYWASRLSLDSFTSVMLYLGYLLLLVLLVFLVTGTI | 42700 |
| SPENVSLAAVTGVYGLGLNPWPTFDYNMLGLDPLVTPFFTTFNFFLGTLFTLP | 74100 |
| DVKISNDFFDNGDNLYGNDEEVLFYEDNYNPKMQWSLQDNSAAINNEDARAIF | 107000 |
| LYYMECSFFRLIIRWIPHWLFLSVKADHVILPLPNHPVGAIIGPNLFCIFLHI | 50900 |
| QLVIAVLLLHASAMFTKRVEIPQLKLETAGKLFPCVFVNIVGLVFNTLCLRDV | 43300 |
| YLTRHVRLFGKLFRRMQQLHATRFVTLPLSSDLILYYWSKVVQASTALPEFIA | 51600 |
| TSLESAPVHVPMHCGIQGVVGSLGVLVSASVVQCVRASIARDSEGGMEWMRVE | 33600 |
| LSAFCCTLVDRYLLSTEYSHFSICLVRSVLNWVARGISSLLLLHFFLLLVMYE | 50600 |
| CYWKAKAPPYVLPMLILSKRLHSIFVLRCFNDCFAVLFLWLAILCLQRRSWQL | 67900 |
| KEEETKPEEAAATEATPEATTEPAAEGAEAPKEEAKTDAAAETKKEDRPKSPG | 20500 |
| SFSSYSSLPSFPSFPYFPSFPFLPFLPFSCVLFLLFLPFLHFLLLPSFPFFYL | 70900 |

| Sequence | transcriptional activation domain activity |
| --- | --- |
| MSSVAAAESKPEKKQKKDKSSKSEKKRLREDDAADAERKHKKSKSLASSEVAA | 15100 |
| ALKALSFARLLVIAVLMDSFLFVFTSAILVIGIGTSFNQIACQVGIWWCIFLY | 58400 |
| DWYFDLPLWVFVCFFLFVFLTLMTFRTPSLTRYYCTVVYYLLGKWVGNCIVYT | 18200 |
| GFAKDTQDEEYVQHHDNVNPTIPPPDNYILNNENDDGLDNLLGMDYYNIDDLL | 101000 |
| LSSFALLSSGYFLDVFFLFFCFFVFFVFPFLFLLSTVNTHAIFFFFLSFSFVI | 60300 |
| AVVVTVWKLCDHPVMAWILGLIRCLTKKLKEVRQCKEELKQFFRDVVCKIEIA | 39000 |
| LTQSRGFIWPPILLAVFFSALGGFYWWSASFFLLASPVAFAPCLFWVLLLFLF | 18000 |
| VLLLLYLAFRAQTIEISIPKAKFCCYDTRVRILVPSRGYRSTYMCRISLLLGC | 19900 |
| ILSRLSLCIGIIIAFVFCTIPLLTYHRDSPVLRCSLYNIIDNFFLPLYLFIVW | 53400 |
| SSSSQTSTSASVLLVFGSDERYVKAAGDLLKSRLNVKGGGKGTRWSGKYTGVW | 31200 |
| EKSEGANGEAGGEGSRRRASGRGRLRGRGRNGRGGRGGRAGETTDDKKEGEAT | 26100 |
| KASGSARESVDGEEDKEEAKEKNKENVKVEEKLDADEGEKESKVKAEAAKEPG | 20300 |
| LFLFLCLFSPPINNPPFSSLIGEFLPLILSSWFYSFLISVWWNRWEKAFSWWL | 33800 |
| IDVCLRERDANDYSRQVLGHYWENGIPLSSNRIIHDLLVILRNVIARVITAAK | 42300 |
| KSKKRRRDDGSSDTADSDGNRGRSTGKKRQRSRRGSDDNDSEADARKRSRKRR | 23600 |
| ICYVSLCVVISMCDLLVLWRCWVIWTALDHHLAYLVTFVPVIMLLSSFVMGTF | 44100 |
| GGGGGSSRKRARGGESEDEAAGARANGVGNGPSNGKGKEKGKEVVDDGVAVGS | 55900 |
| RPFLLNCKDINQFTNLIWERIRITNGTKMYWVWQHLRCVVMFFTLQPNQRILL | 83700 |
| DEDPAKKGKKKASEPAATKVKAARGRKSKAAATEGSEAGPSKPPAKGRGKKAA | 15800 |
| EIKEATGEEHQEEQEDAIDSKEKVVMQSCPEVSLRRIRRLLRKHKGDPNKVID | 27300 |
| FRMVLLVYQVAWAVHVYRTRNIALAYLNNYARMMYAIRSYNYQCLFHQIDLEG | 57100 |

| Sequence | transcriptional activation domain activity |
| --- | --- |
| MVYQGGVTFLCNFYILFPFFPFFFCFCKVSFLFCFCIFLFFCSWDGGLFLFLF | 62700 |
| ALKILVLLIFLMDTLHTYGVISYQWGLFLFCHHNATSACLSVLPWEIFMAVVL | 56300 |
| GGGNRGRWPGDDSSDSSSSENERRGRRERRRRHRRRSASPDARRSGKGDAPKQ | < 6570 |
| DWESIGAASLRNNSLAPNIDSVASSTNGVVSPKPTNPSFTNSQNGDIEPPLQH | 46900 |
| GGEGGAARNGRKRAENARRGREGGKERGPGNKTVAGQEAGGRGHREDRGGSDR | 40500 |
| MQTSLLPLFSFLSFLFLLVFLLLLSLYLAFSHVAFSFLSLFFCYISFFLFYSF | 26200 |
| WWLLGDSYESEIISLVILFQFWNNGALVNFGSAFRQAWWRNYLLVFVWSCFFI | 17800 |
| PAEVKLIWTRPVTLTKVIFVFVRYSIALCQVTAVYVLLIVRVYTLWDHRRAIL | 70300 |
| RKTKFPILLSGDGYIHFGFLYAVIPNLNIMAMSYVAVINNVRVVAYLCLWMSL | 50800 |
| SWLRGYEVFKLQVSSTMIKCLRGMLCFIPVVCLGPNIVLLLGLPIQTQVKWFL | 61100 |
| MLYVRCVISYIHIYNIFIHVTVSVHPEWWAFVSLTCFTLHVYLLHFLSAVARC | 67000 |
| FFLALSFKDPFRWLYQFNMDPSLCTEKYLGSNLCVNQNLITLGFMLLLDLVLF | 67300 |
| GMGTAAGKSRARAAAKKTTTKGKESKGKSKSQVGTRRSVRGKRGAREVGDASS | 27300 |
| TNPAAAVAAAVAAKKTDTEEETTPKEDKAEEAKPEEEKKEEKKEEKAAAKSRS | 33900 |
| AGGGNHPPPPPPPPPPAGRSGGAPPPPPPPPPPPPGAGGGNHPPPPPPPPPPP | 23500 |
| MVFFFFFFFLEGGGLVGWLCSALIFPLSFFLSSKLCLLLPLYYYSNCVFFFLC | 75600 |
| PELVPLDLKNPELDSSFDLNMNLDLNLNLDSNFNIALNRSDSSGSTMNLDYKL | 101000 |
| QENAQTEKEERDEKERAREKGNEKEKGNESEKGDEKKKGNEKKKGTERGKGKG | 28100 |
| YPNLSGNTFICSSRGSITGRMTVSGDDFIASQYDYSYSHVWRNLGILIAFWIF | 53500 |
| MGCLHFSLFVAFWVFIAFPPSVSYHLALYLLLLLLFILFLLMCGLLRAFGLPV | 36700 |
| TSAFGQTNNAASPFGGTSNTAAGGFGSPATGGFGTNTAGGAFGSKPAFGATTT | 38300 |

| Sequence | transcriptional activation domain activity |
| --- | --- |
| STPSAFGAQPTQTTGAFGQPAQTSAFGAQPATGGFGNTGSAFGQARPSAFGST | 16900 |
| MLLHVFRLIEIIEILWISCICAILLVVFVILEVCNLFVLGRKISFLMFCVWVI | 54400 |
| KLLNYLQMDRAKVVSFTIFVFVWSYFRHYLNLVILWSVWTQYDLIPQFARRWV | 40000 |
| GGVSRIRQGERQGAGAGGAEGKSRKGAAAGRGKGGEQGGERGGSREGKGGGAG | 37500 |
| NSWLCGFQGIALMYLVLLLLCFGVLLIANLHFLSVYRSTWLQIHMTPMIVLSF | 57400 |
| DGVKGWAVGVVVAGPFMAGLIKLIRWAGDSFVAYVVVFLFVFQLVAMTLYPTL | 19000 |
| VVVYCKSIDLLFRVALYLWRSPAVIAWISFAARQARVIVATVVFGLGINRADI | 69400 |
| MFWLSVSCYTYKIIRFYYADCGLVGVLKDQVQQCWIHLSYDLVYQYLPNLLNW | 69400 |
| RAGGRGREKKKEAEGPKKRRRKGAGGGDGQRARRKDKGRRRGEIARTAEGRNG | 20500 |
| HTQPNLVPWLRCFPADAISVELISHEYIIRILRPILPADWQRPLFYSHRIRMY | 28900 |
| HASAAPTATPAAPTVEKAKPKSREASPAKPKSPERRRPASPAPAAAVPEPVAA | 32900 |
| MNAVQASGLVISLVLYVAVVFILLAGPLLFFLCYFFFLISITFPVHLPPMRVS | 63800 |
| MTVDTLSYTLFPFYSLLSHFLLLLAEIVLCLKYCLLLTLFSILLFLLVFLFLA | 32800 |
| KFQERMMVLKEIKLISLGDVRKITYSRMGYTDWKIVVLGRMWNLRFFVATGWD | 64400 |
| HWSYARNANMIVNFFYKNIMGIGVLWWFQIYCGWSTTYVFEYTYLLFWNVFWS | 56200 |
| VTSLATARLPAARPRTAVLPARATSAVRRVTCRANAPRTAVRVTAATVPSATR | 45400 |
| MLLPFVCLLFFLLAFLFSLSLSALFCFSKRRLIPILFFIASLLLYNFVFPPFF | 38400 |
| VEAAEPEIEVPNKDSRPSKRGRKEKVIEEEDSAPVDKPVSKGKKAAPVAKTAL | 15300 |
| AAPAAPADDGFQSVPGRNRGQREGGGNYRSRGGYRGEGRGRGGYRGEGRGRGR | 37000 |
| SGSSKPRRAEDGRKSSRRDHSREREGSNGGHHRSRSGRDGSASPKRSSSSRRR | 16800 |
